# In patent US20190381169A1, “PHARMACEUTICAL COMBINATIONS FOR IMMUNOTHERAPY” (Technische Universitat Dresden, priority 2014, published 2019):
# Columns and labels:
# [1] = molecular target: T1, p75^NTR (Mus musculus, UniProt Q9Z0W1); test: Proliferation and cytokine secretion of OT-II CD4+ or OT-I CD8+ T-cells co-cultured with murine PDCs; assay type: cell-based
# T1 construct: endogenous in cells; host or cells: murine plasmacytoid dendritic cells differentiated in vitro from bone marrow with Flt3-L (p75NTR+/+ wildtype; p75NTR-/- as control)
# T1 sequence (Q9Z0W1 32-427): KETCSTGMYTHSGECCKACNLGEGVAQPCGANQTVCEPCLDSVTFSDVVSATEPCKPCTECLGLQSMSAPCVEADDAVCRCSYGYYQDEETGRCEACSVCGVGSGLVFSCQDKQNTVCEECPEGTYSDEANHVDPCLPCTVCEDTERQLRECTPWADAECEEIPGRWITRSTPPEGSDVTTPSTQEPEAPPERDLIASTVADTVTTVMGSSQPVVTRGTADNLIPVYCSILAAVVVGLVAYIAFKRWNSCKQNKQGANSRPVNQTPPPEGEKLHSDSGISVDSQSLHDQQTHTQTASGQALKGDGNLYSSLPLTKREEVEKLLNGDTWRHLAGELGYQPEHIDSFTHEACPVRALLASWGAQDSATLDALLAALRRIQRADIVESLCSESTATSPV
# Description: Murine T-cells were isolated either from OT-II mouse strain expressing ovalbumin peptide specific T-cell receptors on CD4+ T-cells or from OT-I mouse strain expressing ovalbumin peptide specific T-cell receptors on CD8+CTLs using the CD8+ T-cell isolation kit (Miltenyi Biotec).
# [2] = molecular target: T1, p75^NTR; test: OVA-mediated allergic asthma induced by intratracheal OVA-loaded PDCs; assay type: in vivo
# Description: Heterozygous p75^NTR knockout mice (p75^NTR+/−) were purchased from The Jackson Laboratory (Bar Harbor, Me., USA) and bred under pathogen-free conditions in the animal facility of the TU Dresden. Male and female p75^NTR+/+ and p75^NTR−/− mice were used at 10-12 weeks of age for experiments.
# Murine PDC were generated in vitro as follows: Bone marrow cells were isolated by flushing femur and tibia of mice. Erythrocytes were lysed using ACK buffer. Remaining cells were washed and cultured at a density of 2×10^6 cells per ml in RPMI 1640 medium supplemented with 10% FCS, 1 mM sodium pyruvat, 2 mM L-glutamine, 100 IU per ml penicillin, 100 μg/ml streptomycin, 10 mM HEPES buffer and 0.1 mM β-mercaptoethanol. To differentiate bone marrow cells into PDCs, 100 ng/ml Flt3-L (fms-like tyrosine kinase 3-ligand) was added to the cells. After 8 days of culture PDCs were enriched by removing the CD11b^+ fraction using CD11b Microbeads (Miltenyi Biotec) according to manufacturer instructions. Dead cells were excluded using Dead cell removal Kit (Miltenyi Biotec). Purity of PDCs was evaluated by flow cytometry (CD11b^−CD11c^+B220^+Siglec-H^+).
# To induce allergic asthma, in vitro generated PDCs were incubated with 100 μg/ml ovalbumin (OVA; grade V; Sigma-Aldrich) for 24 h. To sensitize mice, 1×10^6 OVA-loaded PDCs were injected intratracheally to the lungs of anesthetized mice using 24GA i.v. cannula (BD Neoflon™). Control animals received either the same amount of PDCs without OVA or PBS. After 10 days, mice were exposed to 1% w/v OVA-aerosol for 30 min on 3 consecutive days in order to induce allergic reaction. 24 h after last provocation, animals were sacrificed and the immune reaction was examined based on the bronchoalveolar lavage fluid (BALF) cell composition (eosinophils, lymphocytes, macrophages) and pro-inflammatory cytokines spectrum, lung histology and blood serum OVA-specific IgE levels.
# BALF cells were quantified by flow cytometry. Cells were preincubated with FcR blocking reagent to avoid a non-specific binding. The following antibodies were used for staining: CD3-V500, CD4-V450, CD8-PE Cy7, CD11c-APC Cy7, B220-PE, F4/80-PerCP, SiglecF-AF647, Ly6G-FITC. Among lymphocytes (FSC^low/SSC^low) the CD4^+ T helper cells were designated as CD3^posCD4^pos; the CD8^+ T helper cells as CD3^posCD8^pos; B-cells as CD3^negB220^pos; among granulocytes (FSC^low/SSC^high, Ly6G^pos) eosinophils were assigned as SiglecF^posCD11c^neg and neutrophils as SiglecF^neg. Macrophages were assigned as FSC^high highly autofluorescent CD11c^posF4/80^pos cells. Additionally, the cytospins of collected cells were prepared and stained according to Pappenheim's method.
# BALF supernatant was used for quantification of IL-4, IL-5 and IL-13 by ELISA (eBioscience) according to manufacturer instruction.
# Lungs were perfused with PBS and fixed in 4% v/v formaldehyde. 4 μm sections of paraffin-embedded lungs were stained with PAS staining for quantification of inflammation and GobleT-cell hyperplasia.
# NGF is present in the lung and increased during inflammatory processes such as allergic asthma. To investigate the impact of NGF on PDCs during allergen-mediated immune response, p75^NTR+/+ PDCs were incubated with ovalbumin (OVA) in the presence or absence of NGF (100 ng/ml) prior intratracheal instillation to p75^NTR+/+ mice.
# To substantiate the p75^NTR dependent impact of NGF on PDCs during allergen-mediated immune response, p75^NTR+/+ PDCs were incubated with ovalbumin (OVA) and NGF (100 ng/ml) in the presence or absence of the p75^NTR-specific inhibitory peptide PEP5 prior intratracheal instillation to p75^NTR+/+ mice.
# [3] = molecular target: T1, p75^NTR; test: Th1 cytokine secretion in co-culture of murine PDCs and OTII T-cells with ovalbumin peptide (CBA); assay type: cell-based; conditions: OTII T-cells with p75^NTR+/+ PDCs and ovalbumin peptide 323-339, NGF 100 ng/ml, compared to p75^NTR−/− PDCs
# Description: Murine T-cells were isolated from the OTII mouse strain expressing mouse alpha-chain and beta-chain T-cell receptor specific for chicken ovalbumin 323-339, using the CD+ T-cell isolation kit (Miltenyi Biotec).
# Both, murine PDCs and T-cells were cultured overnight with or without the chicken ovalbumin peptide 323-339 in the presence or absence of NGF (100 ng/ml). The concentrations of T-cell secreted Th1-cytokines IL-2 and IFNγ in the supernatant were determined by using the CBA kit (BD Bioscience) following manufacturer's instruction with modification in data analysis using Microsoft Excel. […] In the presence of p75^NTR+/+ PDCs presenting the ovalbumin peptide (OVA) to the T-cells, T-cells secrete the Th1 cytokines IFNγ (FIG. 5A) and IL-2 (FIG. 5B).
# [4] = co-culture with PDCs, NGF present
# [5] = co-culture with p75^NTR+/+ PDCs, NGF added, compared to p75^NTR−/− PDCs
# [6] = p75^NTR+/+ PDCs incubated with OVA in presence of NGF (100 ng/ml) vs OVA alone, then intratracheal instillation to p75^NTR+/+ mice
substance,measurement,setting,value
"NGF: Nerve growth factor, best characterized neurotrophin; natural p75^NTR agonist (R&D Systems)",cytokine secretion of CD8+ T-cells (CTLs) from OT-I strain,[1]; [4],secreted less cytokines
same,proliferation of CD8+ T-cells (CTLs) from OT-I strain,[1]; [4],reduced proliferation
same,cytokine secretion of CD4+ T-cells from OT-II strain,[1]; [5],increased
same,proliferation of CD4+ T-cells from OT-II strain,[1]; [5],increased
same,number of macrophages in BALF,[2]; OVA up-take by PDCs in presence of NGF vs OVA alone,decreased
same,"production of Th2 cytokines (IL-4, IL-5 and IL-13) in the lung",[2]; OVA-loaded PDCs treated with NGF vs pulsed with OVA in absence of NGF,increased production
same,"inflammatory phenotype in the lung (histology: perivascular inflammation, mucus production)",[2]; PDCs treated with NGF during OVA-uptake,potentiated the inflammatory phenotype in the lung
same,numbers of eosinophils in BALF,[2]; [6],significantly augmented
same,numbers of lymphocytes in BALF,[2]; [6],significantly augmented
same,induction of airway inflammation by p75^NTR−/− PDCs,"[2]; p75^NTR−/− PDCs loaded with OVA in presence or absence of NGF, data not shown",not able to induce airway inflammation
same,secretion of Th1 cytokines IFNγ and IL-2,[3],reduced secretion
